{
  "source": "patent US20240076403A1",
  "key": {"[1]": {"molecular_target": "human HER2 protein on cells (SK-BR-3 endogenous; CHO-K1-human HER2 recombinant) (human) (UniProt P04626)", "assay": "FACS on CHO-K1-human HER2 cells"}, "[2]": {"molecular_target": "monkey HER2-His protein (Sino Biological, Cat. No. 90295-C08H) (monkey)", "assay": "ELISA, 10 nM"}, "[3]": {"molecular_target": "human HER2-His protein (Acro, Cat. No. HE2-H5225) (human) (UniProt P04626)", "assay": "ELISA, 10 nM"}, "[4]": {"molecular_target": "monkey HER2-His protein (Sino Biological, Cat. No. 90295-C08H) (monkey)", "assay": "ELISA, 0.1 nM"}, "[5]": {"molecular_target": "human HER2-His protein (Acro, Cat. No. HE2-H5225) (human) (UniProt P04626)", "assay": "ELISA, 0.1 nM"}, "[6]": {"molecular_target": "human HER2-His protein (Acro, Cat. No. HE2-H5225) (human) (UniProt P04626)", "assay": "ELISA, 1 nM"}, "[7]": {"molecular_target": "monkey HER2-His protein (Sino Biological, Cat. No. 90295-C08H) (monkey)", "assay": "ELISA, 0.001 nM"}, "[8]": {"molecular_target": "human HER2-His protein (Acro, Cat. No. HE2-H5225) (human) (UniProt P04626)", "assay": "ELISA, 0.001 nM"}, "[9]": {"molecular_target": "monkey HER2-His protein (Sino Biological, Cat. No. 90295-C08H) (monkey)", "assay": "ELISA, 0.01 nM"}, "[10]": {"molecular_target": "human HER2-His protein (Acro, Cat. No. HE2-H5225) (human) (UniProt P04626)", "assay": "ELISA, 0.01 nM"}, "[11]": {"molecular_target": "human HER2 protein on cells (SK-BR-3 endogenous; CHO-K1-human HER2 recombinant) (human) (UniProt P04626)", "assay": "FACS on SK-BR-3 cells"}, "[12]": {"molecular_target": "human HER2-His protein (Acro, Cat. No. HE2-H5225) (human) (UniProt P04626)", "assay": "ELISA, 1 nM", "remark": "listed apart in the source"}, "[13]": {"molecular_target": "monkey HER2-His protein (Sino Biological, Cat. No. 90295-C08H) (monkey)", "assay": "ELISA, 100 nM"}, "[14]": {"molecular_target": "human HER2-His protein (Acro, Cat. No. HE2-H5225) (human) (UniProt P04626)", "assay": "ELISA, 100 nM"}, "[15]": {"molecular_target": "monkey HER2-His protein (Sino Biological, Cat. No. 90295-C08H) (monkey)", "assay": "ELISA, 0.0001 nM"}, "[16]": {"molecular_target": "human HER2-His protein (Acro, Cat. No. HE2-H5225) (human) (UniProt P04626)", "assay": "ELISA, 0.0001 nM"}, "[17]": {"molecular_target": "monkey HER2-His protein (Sino Biological, Cat. No. 90295-C08H) (monkey)", "assay": "ELISA, 0.00001 nM"}, "[18]": {"molecular_target": "human HER2-His protein (Acro, Cat. No. HE2-H5225) (human) (UniProt P04626)", "assay": "ELISA, 0.00001 nM"}, "[19]": {"molecular_target": "human HER2-His protein (Acro, Cat. No. HE2-H5225) (human) (UniProt P04626)", "assay": "ELISA, 10 nM", "remark": "listed apart in the source"}, "[20]": {"molecular_target": "human HER2-His protein (Acro, Cat. No. HE2-H5225) (human) (UniProt P04626)", "assay": "ELISA, 0.001 nM", "remark": "listed apart in the source"}, "[21]": {"molecular_target": "monkey HER2 on HEK293T-monkey-HER2 cells (monkey)", "assay": "FACS on HEK293T-monkey-HER2 cells"}, "[22]": {"molecular_target": "monkey HER2-His protein (monkey)", "assay": "ELISA, coated monkey HER2-His"}},
  "data": [
    {"substance": "hIgG1 (IgG subtype control) (antibody)", "values": [
      {"measurement": "Max MFI", "setting": "[1]", "value": 71},
      {"measurement": "OD450", "setting": "[2]", "value": 0.07},
      {"measurement": "OD450", "setting": "[3]", "value": 0.06},
      {"measurement": "OD450", "setting": "[4]", "value": 0.05},
      {"measurement": "OD450", "setting": "[5]", "value": 0.05},
      {"measurement": "OD450", "setting": "[6]", "value": 0.06},
      {"measurement": "OD450", "setting": "[7]", "value": 0.05},
      {"measurement": "OD450", "setting": "[8]", "value": 0.05},
      {"measurement": "OD450", "setting": "[9]", "value": 0.08},
      {"measurement": "OD450", "setting": "[10]", "value": 0.06},
      {"measurement": "Max MFI", "setting": "[11]", "value": 73},
      {"measurement": "OD450", "setting": "[12]", "value": 0.05},
      {"measurement": "OD450", "setting": "[13]", "value": 0.12},
      {"measurement": "OD450", "setting": "[14]", "value": 0.06},
      {"measurement": "OD450", "setting": "[15]", "value": 0.06},
      {"measurement": "OD450", "setting": "[16]", "value": 0.06},
      {"measurement": "OD450", "setting": "[17]", "value": 0.05},
      {"measurement": "OD450", "setting": "[18]", "value": 0.05},
      {"measurement": "OD450", "setting": "[19]", "value": 0.05},
      {"measurement": "OD450", "setting": "[20]", "value": 0.06}
    ]},
    {"substance": "hIgG1 (antibody)", "values": [
      {"measurement": "Max MFI", "setting": "[21]", "value": 127, "unit": "MFI"},
      {"measurement": "OD450 nm at 0.0001 nM antibody", "setting": "[22]", "value": 0.06, "unit": "OD450 nm"},
      {"measurement": "OD450 nm at 0.001 nM antibody", "setting": "[22]", "value": 0.09, "unit": "OD450 nm"},
      {"measurement": "OD450 nm at 0.01 nM antibody", "setting": "[22]", "value": 0.05, "unit": "OD450 nm"},
      {"measurement": "OD450 nm at 0.1 nM antibody", "setting": "[22]", "value": 0.06, "unit": "OD450 nm"},
      {"measurement": "OD450 nm at 1 nM antibody", "setting": "[22]", "value": 0.05, "unit": "OD450 nm"},
      {"measurement": "OD450 nm at 10 nM antibody", "setting": "[22]", "value": 0.05, "unit": "OD450 nm"},
      {"measurement": "OD450 nm at 100 nM antibody", "setting": "[22]", "value": 0.09, "unit": "OD450 nm"}
    ]}
  ]
}
